Residue numbers refer to the chain shown, from its start. Values belong to the binder of their own block, whether it stands above or below them.
Tests used:
[1] = biological target: T1, IL-13 (human IL-13, preparation not specified) (human, UniProt P35225 35-146, limits assumed); assay: cell-based or functional assay
[2] = biological target: T2, Human IL-13-Mouse IL-13 Helix D chimera (human with mouse Helix D); assay: ELISA on secreted chimeric IL-13
T2 construct: also called Mo HelixD
T2 chain: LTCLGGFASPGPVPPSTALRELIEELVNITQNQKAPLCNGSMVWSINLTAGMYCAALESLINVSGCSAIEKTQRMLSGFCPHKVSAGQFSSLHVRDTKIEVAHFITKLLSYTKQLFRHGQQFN

[3] = biological target: T3, Recombinant Human IL-13 (R&D 213-IL-005) (human, UniProt P35225 35-146); assay: Biacore 2000, mAb captured on goat anti-human surface, IL-13 (R&D) injected, 1:1 fit; first run
T3 sequence (P35225 35-146 limits assumed): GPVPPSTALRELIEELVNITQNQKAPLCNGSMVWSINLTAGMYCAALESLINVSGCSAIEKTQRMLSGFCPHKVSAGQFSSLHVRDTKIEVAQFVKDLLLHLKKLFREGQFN

[4] = biological target: T4, mouse IL-13 (mouse, UniProt P20109 21-131, limits assumed); assay: ELISA, epitope mapping with chimeras
T4 sequence (looked up): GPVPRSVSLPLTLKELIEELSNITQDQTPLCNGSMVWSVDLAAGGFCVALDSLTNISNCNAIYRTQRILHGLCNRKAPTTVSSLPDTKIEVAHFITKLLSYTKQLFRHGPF

[5] = biological target: T3, Recombinant Human IL-13 (R&D 213-IL-005); assay: Biacore 2000, mAb captured on goat anti-human surface, IL-13 (R&D) injected, 1:1 fit; second run
[6] = biological target: T5, Human IL-13-rabbit Fc fusion protein (human); assay: ELISA on plates coated with IL-13RbFc, antibody without soluble competitor, detection rabbit anti Hu IgG Fc HRP
T5 construct: also called IL-13-RbFc; IL-13RbFc
T5 sequence (chain, as listed by the source limits assumed): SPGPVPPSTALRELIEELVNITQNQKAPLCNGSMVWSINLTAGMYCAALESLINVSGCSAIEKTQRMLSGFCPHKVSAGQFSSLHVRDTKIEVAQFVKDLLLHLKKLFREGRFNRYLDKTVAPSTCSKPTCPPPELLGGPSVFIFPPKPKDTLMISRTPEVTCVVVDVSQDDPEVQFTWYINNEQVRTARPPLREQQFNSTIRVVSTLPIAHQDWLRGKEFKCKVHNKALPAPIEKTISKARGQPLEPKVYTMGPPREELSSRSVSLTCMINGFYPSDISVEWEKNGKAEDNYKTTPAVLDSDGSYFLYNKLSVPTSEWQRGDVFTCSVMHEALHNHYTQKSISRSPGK

[7] = biological target: T6, native human IL-13 (human, UniProt P35225 25-146); assay: KinExA equilibrium in solution
T6 construct: mature; Secreted by stimulated PBMCs; also called hIL-13 (KinExA)

[8] = biological target: T6, native human IL-13; assay: KinExA, Kinetic inject method (KD repeated from Table 10)
[9] = biological target: T6, native human IL-13; assay: KinExA, Kinetic Direct method; calculated from kon and KD
[10] = biological target: T6, native human IL-13; assay: KinExA, Kinetic Direct method
[11] = biological target: T7, native macaque monkey IL-13 (macaque monkey, UniProt Q0PW92 19-132); assay: KinExA equilibrium in solution
T7 construct: also called native macaque IL-13
T7 sequence (Q0PW92 entry or part of it limits assumed): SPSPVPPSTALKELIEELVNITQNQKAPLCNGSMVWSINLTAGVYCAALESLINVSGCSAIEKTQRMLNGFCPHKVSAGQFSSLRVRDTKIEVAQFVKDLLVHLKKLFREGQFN

[12] = biological target: T6, native human IL-13; assay: KinExA, Kinetic Direct method (KD repeated from Table 10)
[13] = biological target: T3, Recombinant Human IL-13 (R&D 213-IL-005); assay: Biacore 2000, mAb captured on goat anti-human surface, IL-13 (R&D) injected, 1:1 fit
[14] = biological target: T6, native human IL-13; assay: KinExA, Kinetic inject method
[15] = biological target: T6, native human IL-13; assay: KinExA, Kinetic inject method; calculated from kon and KD
[16] = biological target: T1, IL-13 (human IL-13, preparation not …); assay: cell-based or functional assay; remark: listed apart in the source

T1 sequence (P35225 35-146 limits assumed): as the sequence (P35225 35-146 limits assumed) above

IC50, Eotaxin-1 assay, Average [1]: 54 pM
IC50, Eotaxin-1 assay, n = 1 [1]: 38 pM
IC50, Eotaxin-1 assay, n = 2 [1]: 69 pM
IC50, Eotaxin-1 assay, n = 3 [1]: 53 pM
binding result [2]: no binding
Kd [3]: 0.189 nM
koff [3]: 0.00038 s⁻¹
kon [3]: 2e+06 M⁻¹ s⁻¹
binding result [4]: no binding
Kd [5]: 0.109 nM
koff [5]: 0.00027 s⁻¹
kon [5]: 2.5e+06 M⁻¹ s⁻¹
B1: antibody 693 (antibody, V domains shown)
VH: QVQLQESGPGLVKPSETLSLTCSVSGGSISSYYWSWIRQPAGKGLEWIGRIYMTGRTNYNSSLKSRVTMSIDTSKNQLSLKLSFMTAADTAVYYCARESGSSYSYDYWGQGTLVTVSS
VL: SYVLTQPPSVSVAPGQTARITCGGNNIGSKGVHWYQQKPGQAPVLVVYDDSDRPSGIPERFSGSNSGNTATLTISRVEAGDEADYYCQVWVSSSDHHVVFGGGTKLTVV
notes: also called sc693

IC50, Eotaxin-1 assay, Average [1]: 176 pM
IC50, Eotaxin-1 assay, n = 1 [1]: 223 pM
IC50, Eotaxin-1 assay, n = 2 [1]: 144 pM
IC50, Eotaxin-1 assay, n = 3 [1]: 160 pM
binding result [2]: no binding
binding result [4]: no binding
B2: antibody 785 (antibody, V domains shown)
VH: not shown
VL: SYVLTQPPSVSVAPGQTARITCGGNNIGNKIVHWYQQKPGQAPVLVVYDDSDRPSGIPERFSGSNSGNTATLTISRVEAGDEADYYCQVWDSSSDHVVFGGGTKLTVL
notes: lambda light chain

IC50, Eotaxin-1 assay, Average [1]: 101 pM
IC50, Eotaxin-1 assay, n = 1 [1]: 99 pM
IC50, Eotaxin-1 assay, n = 2 [1]: 123 pM
IC50, Eotaxin-1 assay, n = 3 [1]: 80 pM
B3: antibody 353 (antibody, V domains shown)
VH: QVQLQESGPGLVKPSETLSLTCTVSGGSISTYYWSWIRQPPGKGLEWIGYIYYSGSTNYNPSLKSRVTISVDTSKNQFSLKLSSVTAADTAVYYCARDGGHYWDDAFDIWGQGTMVTVSS
VL: DIQMTQSPSSLSASVGDRVTITCRASQGIRNDLDWYQQKPGKAPKRLIYDASSLQSGVPSRFSGSGSGTEFTLTISSLQPEDFATYYCLQHDSYPFTFGPGTKVDIK

IC50, Eotaxin-1 assay, Average [1]: 245 pM
IC50, Eotaxin-1 assay, n = 1 [1]: 213 pM
IC50, Eotaxin-1 assay, n = 2 [1]: 304 pM
IC50, Eotaxin-1 assay, n = 3 [1]: 217 pM
B4: antibody 11.18.3 (antibody, V domains shown)
VH: QVQLVESGGGVVQPGRSLRLSCVASGFTFSSYDMHWVRQAPGKGLEWVAVIWYDGSNKYYADSVQGRFTISRDNSKNTLYLQMNSLRAEDTAVYYCTSEDSSGWYDGWFDPWGQGTLVTVSS
VL: DIQMTQSPSSLSASVGDRVTITCRASQGISNYLAWYQQKPGKVPKVLIYAASTLQSGVPSRFSGSGSGTDFTLTISSLQPEDVATYYCQKYNSAPFTFGPGTKVDIK

binding result [6]: binds
Kd [7]: 0.024 nM
IC50, Eotaxin-1 assay, Average [1]: 36 pM
IC50, Eotaxin-1 assay, n = 1 [1]: 31 pM
IC50, Eotaxin-1 assay, n = 2 [1]: 40 pM
IC50, Eotaxin-1 assay, n = 3 [1]: 35 pM
Kd [8]: 0.024 nM
koff [9]: 0.00027 s⁻¹
kon [10]: 1.1e+07 M⁻¹ s⁻¹
Kd [11]: 0.037 nM
Kd [12]: 0.024 nM
Kd [13]: 0.052 nM
koff [13]: 0.00025 s⁻¹
kon [13]: 4.9e+06 M⁻¹ s⁻¹
kon [14]: 1.5e+07 M⁻¹ s⁻¹
koff [15]: 0.00036 s⁻¹
binding result [4]: no binding
B5: antibody 623 (antibody, V domains shown)
VH: EVQLVESGGGLVKPGGSLRLSCAASGFTFSNAWMSWVRQAPGKGLEWVGRIRSEIDGGTTNYAAPVKGRFTISRDDSKNTLYLQMNSLKTEDTAVYYCATDQVGAYYGDYYGMDVWGQGTLVTVSS
VL: SYELTQPPSVSVSPGQTARITCSGDALPEKYAYWYQQKSGQAPVLVIYEDSKRPSGIPERFSGSSSGTMATLTISGAQVEDEADYYCHSTDSSGNHGVFGGGTKLTVL

Kd [7]: 0.013 nM
IC50, Eotaxin-1 assay, Average [1]: 35 pM
IC50, Eotaxin-1 assay, n = 1 [1]: 44 pM
IC50, Eotaxin-1 assay, n = 2 [1]: 28 pM
IC50, Eotaxin-1 assay, n = 3 [1]: 33 pM
Kd [13]: 0.066 nM
koff [13]: 0.00029 s⁻¹
kon [13]: 4.4e+06 M⁻¹ s⁻¹
IC50 (read off the curve) [16]: ~0.03 nM
binding result [4]: no binding
B6: antibody 643 (antibody, V domains shown)
VH: B5 VH with K89R
VL: B5 VL
notes: also called Ab 643; mAb 643

IC50, Eotaxin-1 assay, Average [1]: 66 pM
IC50, Eotaxin-1 assay, n = 1 [1]: 80 pM
IC50, Eotaxin-1 assay, n = 2 [1]: 53 pM
Kd [13]: 0.172 nM
koff [13]: 0.00051 s⁻¹
kon [13]: 3e+06 M⁻¹ s⁻¹
binding result [4]: no binding
B7: antibody 602 (antibody, V domains shown)
VH: B5 VH with E54K, T60I
VL: B5 VL with S51T, H88Y
notes: also called mAb 602

— patent US20220281966A1 (Amgen, published 2022)
